Source: publication PMC4081103, “PARG is dispensable for recovery from transient replicative stress but required to prevent detrimental accumulation of poly(ADP-ribose) upon prolonged replicative stress”

Target: RPA heterotrimer (RPA1, RPA2, RPA3) (UniProt P27694;P15927;P35244 1-616;1-270;1-121)
Test: EMSA; low PAR (lanes 3-4, from 8 ng) mixed with DNA before RPA; free DNA decreased; PBS, 20 ul, 20-23 C (room temperature), 30 min; 1% agarose gel in 0.5x TBE at 4 C; pH not stated
Settings: protein: recombinant; copies: 1;1;1; label: 5' Cy5.5; single strand

Chain of RPA heterotrimer (RPA1, RPA2, RPA3) (P27694 whole entry, chain 1 of 3): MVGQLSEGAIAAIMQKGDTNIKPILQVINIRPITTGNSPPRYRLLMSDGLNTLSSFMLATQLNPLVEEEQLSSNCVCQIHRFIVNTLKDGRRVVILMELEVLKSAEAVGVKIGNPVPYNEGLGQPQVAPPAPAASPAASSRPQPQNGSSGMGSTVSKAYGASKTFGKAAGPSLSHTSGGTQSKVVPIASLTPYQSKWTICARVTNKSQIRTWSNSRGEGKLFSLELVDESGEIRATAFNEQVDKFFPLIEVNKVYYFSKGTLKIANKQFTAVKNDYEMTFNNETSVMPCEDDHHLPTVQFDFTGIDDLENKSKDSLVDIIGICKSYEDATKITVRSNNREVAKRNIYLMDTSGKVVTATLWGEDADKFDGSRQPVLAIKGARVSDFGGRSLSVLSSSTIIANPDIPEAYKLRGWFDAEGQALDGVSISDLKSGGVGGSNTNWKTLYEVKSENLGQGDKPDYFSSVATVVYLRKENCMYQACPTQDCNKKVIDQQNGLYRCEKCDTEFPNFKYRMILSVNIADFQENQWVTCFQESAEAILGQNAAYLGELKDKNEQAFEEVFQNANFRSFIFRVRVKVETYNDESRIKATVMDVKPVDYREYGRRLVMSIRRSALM
Chain of RPA heterotrimer (RPA1, RPA2, RPA3) (P15927 whole entry, chain 2 of 3): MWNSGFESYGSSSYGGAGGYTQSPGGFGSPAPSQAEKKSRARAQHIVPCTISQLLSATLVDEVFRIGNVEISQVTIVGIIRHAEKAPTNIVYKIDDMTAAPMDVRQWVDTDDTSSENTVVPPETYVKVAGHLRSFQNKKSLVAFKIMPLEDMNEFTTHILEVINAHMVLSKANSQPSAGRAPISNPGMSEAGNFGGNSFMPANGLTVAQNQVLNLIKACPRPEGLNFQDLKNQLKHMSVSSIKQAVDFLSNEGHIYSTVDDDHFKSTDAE
Chain of RPA heterotrimer (RPA1, RPA2, RPA3) (P35244 whole entry, chain 3 of 3): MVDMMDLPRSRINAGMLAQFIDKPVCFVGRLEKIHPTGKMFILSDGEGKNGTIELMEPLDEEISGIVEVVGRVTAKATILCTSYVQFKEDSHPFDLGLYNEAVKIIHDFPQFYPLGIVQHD

TTTTTTTTTTTTTTTTTTTTTTTTTTTTTTTTTTTTTTTTTTTTTTTTTT (ssDNA) [Cy5.5-oligodT 50-mer]
binding result: binds
